Measured values published in the supplement of paper PMC9112550, “Optimization of the antimicrobial peptide Bac7 by deep mutational scanning” (BMC Biology, 2022).

System: Escherichia coli TOP10
Experiment: shrunken log2 fold change of peptide-encoding DNA abundance (4.5 h post-induction vs induction); higher = less antimicrobial activity (less host growth inhibition)
Details: time post-induction: 4.5 h; library: site-saturation at positions 5, 18, 19, 20
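Further: peptides expressed intracellularly from a pBAD plasmid library in pooled LB shake-flask culture, induced with 0.3% L-arabinose, DNA abundance read by NGS, three biological replicates, DESeq2 with apeglm shrinkage.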

Sequence | shrunken log2 fold change
RRIRVRPPRLPRPRPRPGISPRP | -0.49
RRIRARPPRLPRPRPRPIDRPRP | -0.027
RRIRFRPPRLPRPRPRPCGKPRP | -0.018
RRIRNRPPRLPRPRPRPCQNPRP | -0.835
RRIRFRPPRLPRPRPRPGFKPRP | 0.122
RRIRRRPPRLPRPRPRPSMKPRP | -0.434
RRIRDRPPRLPRPRPRPLICPRP | 0.347
RRIRVRPPRLPRPRPRPRVPPRP | -0.00723
RRIRTRPPRLPRPRPRPRTIPRP | 0.0752
RRIRTRPPRLPRPRPRPKCKPRP | 0.0156
RRIRARPPRLPRPRPRPMKFPRP | 0.0174
RRIRLRPPRLPRPRPRPGAFPRP | -0.0131
RRIRCRPPRLPRPRPRPNHAPRP | -0.00846
RRIRCRPPRLPRPRPRPLWPPRP | 0.076
RRIRSRPPRLPRPRPRPYRIPRP | 0.123
RRIRTRPPRLPRPRPRPLIRPRP | -0.133
RRIRKRPPRLPRPRPRPLGEPRP | 0.445
RRIRMRPPRLPRPRPRPRMWPRP | 1.04
RRIRNRPPRLPRPRPRPIFDPRP | -0.201
RRIRTRPPRLPRPRPRPIYMPRP | -0.442
RRIRWRPPRLPRPRPRPFVRPRP | -0.127
RRIRIRPPRLPRPRPRPYWCPRP | 0.0219
RRIRWRPPRLPRPRPRPKTSPRP | 0.104
RRIRCRPPRLPRPRPRPIPVPRP | -0.376
RRIRNRPPRLPRPRPRPQVCPRP | 0.0261

Sequence | shrunken log2 fold change
RRIRGRPPRLPRPRPRPDPMPRP | 0.743
RRIRERPPRLPRPRPRPKYFPRP | -0.0979
RRIRFRPPRLPRPRPRPCFDPRP | -0.121
RRIRIRPPRLPRPRPRPRCEPRP | -0.0571
RRIRCRPPRLPRPRPRPMRGPRP | 1.05
RRIRYRPPRLPRPRPRPMYQPRP | -0.124
RRIRIRPPRLPRPRPRPFSDPRP | -0.227
RRIRWRPPRLPRPRPRPHHNPRP | -0.478
RRIRVRPPRLPRPRPRPAESPRP | 0.0613
RRIRDRPPRLPRPRPRPRVEPRP | 0.137
RRIRQRPPRLPRPRPRPVQGPRP | 0.0162
RRIRYRPPRLPRPRPRPTLYPRP | -0.828
RRIRARPPRLPRPRPRPYCFPRP | -0.178
RRIRMRPPRLPRPRPRPMKKPRP | -0.00637
RRIRSRPPRLPRPRPRPDEYPRP | -0.205
RRIRPRPPRLPRPRPRPMNFPRP | -0.165
RRIRFRPPRLPRPRPRPEGIPRP | 0.00745
RRIRHRPPRLPRPRPRPDYQPRP | -0.0951
RRIRMRPPRLPRPRPRPQEMPRP | -0.0105
RRIRFRPPRLPRPRPRPITNPRP | -0.352
RRIRSRPPRLPRPRPRPSIKPRP | -0.613
RRIRPRPPRLPRPRPRPTHMPRP | 0.255
RRIRARPPRLPRPRPRPTFCPRP | 0.386
RRIRYRPPRLPRPRPRPFPLPRP | -0.109
RRIRTRPPRLPRPRPRPGERPRP | 0.113

Sequence | shrunken log2 fold change
RRIRWRPPRLPRPRPRPNPYPRP | -0.133
RRIRARPPRLPRPRPRPPPVPRP | 1.04
RRIRCRPPRLPRPRPRPKLWPRP | 0.121
RRIRGRPPRLPRPRPRPAWNPRP | 0.378
RRIRWRPPRLPRPRPRPQESPRP | 0.00801
RRIRDRPPRLPRPRPRPERKPRP | 0.0234
RRIRYRPPRLPRPRPRPEALPRP | -0.23
RRIRMRPPRLPRPRPRPWDFPRP | 0.121
RRIRSRPPRLPRPRPRPRLHPRP | 0.15
RRIRHRPPRLPRPRPRPDNGPRP | -0.00804
RRIRLRPPRLPRPRPRPDKQPRP | -6.78e-05
RRIRDRPPRLPRPRPRPYMMPRP | -0.297
RRIRPRPPRLPRPRPRPFMVPRP | -0.478
RRIRHRPPRLPRPRPRPAQEPRP | 0.381
RRIRYRPPRLPRPRPRPAGPPRP | -0.0366
RRIRPRPPRLPRPRPRPSQQPRP | 0.0138
RRIRPRPPRLPRPRPRPYGSPRP | -0.0157
RRIRYRPPRLPRPRPRPSECPRP | -0.347
RRIRLRPPRLPRPRPRPFVVPRP | -0.236
RRIRCRPPRLPRPRPRPRGDPRP | 0.867
RRIRVRPPRLPRPRPRPFSGPRP | -0.337
RRIRTRPPRLPRPRPRPSMHPRP | -0.152
RRIRQRPPRLPRPRPRPPCHPRP | 0.0591
RRIRMRPPRLPRPRPRPVIPPRP | -0.259
RRIRSRPPRLPRPRPRPQTQPRP | 0.198

Sequence | shrunken log2 fold change
RRIRGRPPRLPRPRPRPCPGPRP | -0.0819
RRIRPRPPRLPRPRPRPYPKPRP | -0.0921
RRIRDRPPRLPRPRPRPYQQPRP | -0.184
RRIRSRPPRLPRPRPRPVKAPRP | 0.0824
RRIRIRPPRLPRPRPRPCGIPRP | -0.222
RRIRIRPPRLPRPRPRPMTWPRP | -0.0244
RRIRRRPPRLPRPRPRPGFEPRP | 0.293
RRIRLRPPRLPRPRPRPEQTPRP | -0.000687
RRIRWRPPRLPRPRPRPRAWPRP | 0.124
RRIRQRPPRLPRPRPRPWVNPRP | -0.215
RRIRVRPPRLPRPRPRPYPSPRP | -0.422
RRIRDRPPRLPRPRPRPYCPPRP | -1.1
RRIRLRPPRLPRPRPRPNDFPRP | -0.0142
RRIRGRPPRLPRPRPRPEMAPRP | 2.8
RRIRHRPPRLPRPRPRPEDCPRP | -0.0178
RRIRIRPPRLPRPRPRPRLQPRP | 0.123
RRIRLRPPRLPRPRPRPEWAPRP | -0.0233
RRIRKRPPRLPRPRPRPQFAPRP | -0.0223
RRIRGRPPRLPRPRPRPYSVPRP | 0.0284
RRIRFRPPRLPRPRPRPMCQPRP | -0.123
RRIRSRPPRLPRPRPRPGPSPRP | 0.456
RRIRIRPPRLPRPRPRPVAEPRP | 0.243
RRIRMRPPRLPRPRPRPRDHPRP | 0.324
RRIRERPPRLPRPRPRPFICPRP | -0.36
RRIRKRPPRLPRPRPRPYHQPRP | -0.231

Sequence | shrunken log2 fold change
RRIRPRPPRLPRPRPRPPKEPRP | 0.506
RRIRLRPPRLPRPRPRPNLHPRP | -0.347
RRIRRRPPRLPRPRPRPSDLPRP | 0.0119
RRIRMRPPRLPRPRPRPQVCPRP | 0.0261
RRIRMRPPRLPRPRPRPHHNPRP | -0.533
RRIRSRPPRLPRPRPRPRTPPRP | 0.502
RRIRCRPPRLPRPRPRPLCTPRP | -0.088
RRIRTRPPRLPRPRPRPWCAPRP | -0.203
RRIRQRPPRLPRPRPRPVVCPRP | 3.57
RRIRQRPPRLPRPRPRPYMFPRP | -0.392
RRIRVRPPRLPRPRPRPKHPPRP | 0.28
RRIRIRPPRLPRPRPRPGCRPRP | 0.0314
RRIRFRPPRLPRPRPRPRAHPRP | 0.00718
RRIRTRPPRLPRPRPRPPSKPRP | -0.326
RRIRGRPPRLPRPRPRPDQIPRP | 0.167
RRIRSRPPRLPRPRPRPTIDPRP | -0.00141
RRIRQRPPRLPRPRPRPMRWPRP | 0.0431
RRIRARPPRLPRPRPRPGCQPRP | 0.168
RRIRKRPPRLPRPRPRPIKPPRP | 0.0885
RRIRWRPPRLPRPRPRPMPQPRP | 0.178
RRIRQRPPRLPRPRPRPADWPRP | 0.258
RRIRHRPPRLPRPRPRPVHTPRP | -0.292
RRIRARPPRLPRPRPRPCTSPRP | 0.0117
RRIRCRPPRLPRPRPRPPVWPRP | 0.129
RRIRFRPPRLPRPRPRPGEVPRP | 0.185

Sequence | shrunken log2 fold change
RRIRGRPPRLPRPRPRPAHSPRP | 0.0755
RRIRFRPPRLPRPRPRPVMNPRP | -0.548
RRIRARPPRLPRPRPRPHQLPRP | 0.086
RRIRYRPPRLPRPRPRPQAHPRP | -0.149
RRIRFRPPRLPRPRPRPQDIPRP | -0.0714
RRIRNRPPRLPRPRPRPRHEPRP | -0.0217
RRIRIRPPRLPRPRPRPYQTPRP | -0.0792
RRIRGRPPRLPRPRPRPSRDPRP | 0.921
RRIRRRPPRLPRPRPRPYCLPRP | -0.574
RRIRIRPPRLPRPRPRPDIPPRP | -0.112
RRIRMRPPRLPRPRPRPRAVPRP | 0.989
RRIRRRPPRLPRPRPRPEHKPRP | 0.193
RRIRMRPPRLPRPRPRPDGCPRP | 2.12
RRIRIRPPRLPRPRPRPAMKPRP | -0.0563
RRIRARPPRLPRPRPRPLAKPRP | 0.835
RRIRERPPRLPRPRPRPHANPRP | -0.332
RRIRMRPPRLPRPRPRPYLSPRP | -0.0214
RRIRWRPPRLPRPRPRPTKNPRP | 0.159
RRIRYRPPRLPRPRPRPRILPRP | -0.276
RRIRQRPPRLPRPRPRPVQAPRP | -0.0131
RRIRHRPPRLPRPRPRPTPGPRP | 0.327
RRIRARPPRLPRPRPRPEDCPRP | 0.243
RRIRCRPPRLPRPRPRPWCMPRP | -0.585
RRIRARPPRLPRPRPRPIVHPRP | -0.311
RRIRQRPPRLPRPRPRPIQGPRP | -0.0863
